According to patent publication US20200140532A1:

Tests used:
[1] = molecular target: recombinant cynomolgus Aggrecan G1-IGD-G2 (cynomolgus); test: periplasmic extract ELISA
[2] = molecular target: recombinant cynomolgus Aggrecan G1-IGD-G2 (cynomolgus); test: ELISA on recombinant G1-IGD-G2
[3] = molecular target: recombinant cynomolgus Aggrecan G1-IGD-G2 (cynomolgus); test: SPR (ProteOn), off-rate only indicative

Binder | OD 450 nm [1] [OD 450 nm] | EC50 [2] [nM] | koff [3] [s⁻¹]
C0101PMP604G09 (VHH, not shown: large carriers) VHH: DVQLVESGGGLVQPGGSLRLSCVASGRTFSSYAMGWFRQAPGKEREFVAAITWSSATTYYADSVKGRFTISRDNSKNTVYLQMNSLRPEDTAVYYCAAARIPVGRRSENWDYWGQGTLVTVSS | 1.57 |  | 
C0101PMP117D05 (VHH, not shown: large carriers) VHH: KVQLVESGGGLVQAGGSLRLSCAASRRTFNMMGWFRQAPGKEREFVAYITWNGGDTRYAESVKGRFTVSRDDVKNTMALQMNRLDPLDTAVYYCGVRIHGSNWSTKADDYDNWGQGTQVTVSS | 2.12 |  | 
C0101PMP115B08 (VHH, not shown: large carriers) VHH: KVQLVESGGGLVQPGGSLRLSCAASGFTFSMYAMKWVRQAPGKGLEWVSGINSSGGRTNYAGSVKGRFTISRDNAKNTLYLQMNSLKPEDTAVYYCATDFLGGRNSRGQGTQVTVSS | 1.18 |  | 
C0101PMP102G11 (VHH, not shown: large carriers) VHH: EVQLVESGGGLVQAGGSLRLSCAASGRSFSSYAMGWFRQAPGKEREFVSIISWSGGSTVYADSVKGRFTISRDNAKNTVYLQMNSLKPEDTAIYYCAAGRLYRATPRPADFGSWGQGTQVTVSS | 0.6 |  | 
C01010060 (606A07-ALB26) (VHH, not shown: small tags and cut ends) VHH: DVQLVESGGGLVQPGGSLRLSCVASGRTFSIYGMGWFRQAPGKEREFVAAINGGSRTYYADSVKGRFTISRDNSKNTVYLQMNSLRPEDTAVYYCAADRSGYGTSLDWWYDYWGQGTLVTVSS |  | 5.4 | 0.02
C0101PMP606A07 (VHH, not shown: large carriers) VHH: DVQLVESGGGLVQPGGSLRLSCVASGRTFSIYGMGWFRQAPGKEREFVAAINGGSRTYYADSVKGRFTISRDNSKNTVYLQMNSLRPEDTAVYYCAADRSGYGTSLDWWYDYWGQGTLVTVSS | 2.41 |  | 
C01010113 (ALB26-606A07-606A07) (VHH, not shown: small tags and cut ends) VHH 1: DVQLVESGGGLVQPGGSLRLSCVASGRTFSIYGMGWFRQAPGKEREFVAAINGGSRTYYADSVKGRFTISRDNSKNTVYLQMNSLRPEDTAVYYCAADRSGYGTSLDWWYDYWGQGTLVTVSS VHH 2: DVQLVESGGGLVQPGGSLRLSCVASGRTFSIYGMGWFRQAPGKEREFVAAINGGSRTYYADSVKGRFTISRDNSKNTVYLQMNSLRPEDTAVYYCAADRSGYGTSLDWWYDYWGQGTLVTVSS |  | 0.3 | 
C01010054 (114F08-ALB26) (VHH, not shown: small tags and cut ends) VHH: EVQLVESGGGLVQAGGSLRLSCAASGSTFIINVVRWYRRTPGKQRELVATISSGGNANYVDSVRGRFSISRDGAKNAVDLQMNGLKPEDTAVYYCNVPTTHYGGVYYGPYWGQGTQVTVSS |  | 4.4 | 0.0069
C01010118 (ALB26-114F08-114F08) (VHH, not shown: small tags and cut ends) VHH 1: EVQLVESGGGLVQAGGSLRLSCAASGSTFIINVVRWYRRTPGKQRELVATISSGGNANYVDSVRGRFSISRDGAKNAVDLQMNGLKPEDTAVYYCNVPTTHYGGVYYGPYWGQGTQVTVSS VHH 2: EVQLVESGGGLVQAGGSLRLSCAASGSTFIINVVRWYRRTPGKQRELVATISSGGNANYVDSVRGRFSISRDGAKNAVDLQMNGLKPEDTAVYYCNVPTTHYGGVYYGPYWGQGTQVTVSS |  | 0.076 | 
C0101PMP114F08 (VHH, not shown: large carriers) VHH: EVQLVESGGGLVQAGGSLRLSCAASGSTFIINVVRWYRRTPGKQRELVATISSGGNANYVDSVRGRFSISRDGAKNAVDLQMNGLKPEDTAVYYCNVPTTHYGGVYYGPYWGQGTQVTVSS | 2.32 |  | 
C0101PMP113A01 (VHH, not shown: large carriers) VHH: EVQLVESGGGLVQPGGSLRLSCSASGFTFSGSWMFWVRQAPGKDYEWVASINSSGGRTYYDDSVKGRFTISRDSAKNTLYLEMNNLKPEDTALYFCARSPRVGSWGQGTQVTVSS | 2.57 |  | 
C01010046 (601E08-ALB26) (VHH, not shown: small tags and cut ends) VHH: DVQLVESGGGLVQPGGSLRLSCTASGRTFSSYAVGWFRQAPGKEREFVAAISRSGRSTYYADSVKGRFTISRDNSKNTVYLQMNSLRPEDTAVYYCAAGLSYYSPHAYYDYWGQGTLVTVSS |  | 6.8 | 0.0031
C0101PMP601E08 (VHH, not shown: large carriers) VHH: DVQLVESGGGLVQPGGSLRLSCTASGRTFSSYAVGWFRQAPGKEREFVAAISRSGRSTYYADSVKGRFTISRDNSKNTVYLQMNSLRPEDTAVYYCAAGLSYYSPHAYYDYWGQGTLVTVSS | 1.32 |  | 
C0101PMP609C09 (VHH, not shown: large carriers) VHH: DVQLVESGGGLVQPGGSLRLSCAASGTIFSINVMGWYRQAPGKEREFVAAITTGGRTNYADSVKGRFTISRDNSKNTVYLQMNSLRPEDTAVYYCNAEVTTGWVGYSWYDYWGQGTMVTVSS | 1.83 |  | 
C01010094 (604F02-ALB26) (VHH, not shown: small tags and cut ends) VHH: DVQLVESGGGLVQPGGSLRLSCAASGRTFSSYTMGWFRQAPGKEREFVAAISWSGGRTYYADSVKGRFTISRDNSKNTVYLQMNSLRPEDTAVYYCAAYRRRRASSNRGLWDYWGQGTLVTVSS |  | 2.2 | 0.15
C01010106 (ALB26-604F02-604F02) (VHH, not shown: large carriers; small tags and cut ends) VHH 1: DVQLVESGGGLVQPGGSLRLSCAASGRTFSSYTMGWFRQAPGKEREFVAAISWSGGRTYYADSVKGRFTISRDNSKNTVYLQMNSLRPEDTAVYYCAAYRRRRASSNRGLWDYWGQGTLVTVSS VHH 2: DVQLVESGGGLVQPGGSLRLSCAASGRTFSSYTMGWFRQAPGKEREFVAAISWSGGRTYYADSVKGRFTISRDNSKNTVYLQMNSLRPEDTAVYYCAAYRRRRASSNRGLWDYWGQGTLVTVSS |  | 0.068 | 
C0101PMP604F02 (VHH, not shown: large carriers) VHH: DVQLVESGGGLVQPGGSLRLSCAASGRTFSSYTMGWFRQAPGKEREFVAAISWSGGRTYYADSVKGRFTISRDNSKNTVYLQMNSLRPEDTAVYYCAAYRRRRASSNRGLWDYWGQGTLVTVSS | 1.37 |  | 
C01010097 (608A05-ALB26) (VHH, not shown: small tags and cut ends) VHH: DVQLVESGGGLVQPGGSLRLSCAASGRTFSTYTMGWFRQAPGKEREFVAAISWSGGTTYYADSVKGRFTISRDNSKNTVYLQMNSLRPEDTAVYYCAARPRYYYYSLYSYDYWGQGTLVTVSS |  | 0.21 | 0.0018
C01010109 (ALB26-608A05-608A05) (VHH, not shown: small tags and cut ends) VHH 1: DVQLVESGGGLVQPGGSLRLSCAASGRTFSTYTMGWFRQAPGKEREFVAAISWSGGTTYYADSVKGRFTISRDNSKNTVYLQMNSLRPEDTAVYYCAARPRYYYYSLYSYDYWGQGTLVTVSS VHH 2: DVQLVESGGGLVQPGGSLRLSCAASGRTFSTYTMGWFRQAPGKEREFVAAISWSGGTTYYADSVKGRFTISRDNSKNTVYLQMNSLRPEDTAVYYCAARPRYYYYSLYSYDYWGQGTLVTVSS |  | 0.091 | 
C0101PMP608A05 (VHH, not shown: large carriers) VHH: DVQLVESGGGLVQPGGSLRLSCAASGRTFSTYTMGWFRQAPGKEREFVAAISWSGGTTYYADSVKGRFTISRDNSKNTVYLQMNSLRPEDTAVYYCAARPRYYYYSLYSYDYWGQGTLVTVSS | 2.48 |  | 
C0101PMP112A01 (VHH, not shown: large carriers) VHH: EVQLVESGGGLVQTGGSLRLSCVASGRAFSNYIMGWFRQAPGKERDFVAAINWNGVTTHYTDSVKGRFTISRDNAKSTSYLQMDSLKPDDTAVYFCAARGTVYSRTYGVSEEGYMYWGQGTQVTVSS | 2.5 |  | 
C0101PMP604B05 (VHH, not shown: large carriers) VHH: DVQLVESGGGLVQPGGSLRLSCVASGRTFSIYTMAWFRQAPGKEREFVAAISWSSGRTYYADSVKGRFTISRDNSKNTVYLQMNSLRPEDTAVYYCTAYTGPRSGYDYWGQGTLVTVSS | 2.04 |  | 
C0101PMP606A05 (VHH, not shown: large carriers) VHH: DVQLVESGGGLVQPGGSLRLSCVASGRTFSIYTMGWFRQAPGKEREFVAAISWSGGRTYYADSVKGRFTISRDNSKNTVYLQMNSLRPEDTAVYYCTAYTGRSYGSYDYWGQGTLVTVSS | 1.24 |  | 
C0101PMP604G01 (VHH, not shown: large carriers) VHH: DVQLVESGGGLVQPGGSLRLSCAASGRTFSSYTMGWFRQAPGKEREFVAAISWSGRTTYYADSVKGRFTISRDNSKNTVYLQMNSLRPEDTAVYYCAAYRRVRYTNLEVWDYWGQGTLVTVSS | 1.25 |  | 
C0101PMP117G09 (VHH, not shown: large carriers) VHH: EVQLVESGGGSALPGGSLRLSCAASGITFSSRYMRWYRQAPGRQRELVAAISSGGRTDYVDSVRGRFTLSINNAKNTVYLQMNDLKPEDTAVYYCYRPRMYVDGTYEKELWGQGTLVTVSS | 2.21 |  | 
C0101PMP112A03 (VHH, not shown: large carriers) VHH: EVQLVESGGGLVQPGGSLRLSCAASGSIFSNRFMYWYRQAPGKQRELVASITLSGSTNYADSVKGRFTISRDNAKNTVYLQMNSLKPEDTAVYYCNTFLQNSFYWGQGTQVTVSS | 2.36 |  | 
